Values quoted from earlier work as cited in patent publication US9879249B2, “Aldehyde-tagged protein-based drug carriers and methods of use” (Redwood Bioscience, Inc., priority 2009, dated 2018).

Conditions: calcitonin peptide alone, unconjugated

Substance: Calcitonin
- absorption half-life: 10 to 15 min
- elimination half-life: 50 to 80 min
